Numbering of substitutions follows the chain as printed. Names and notes keep the numbering of the source.
Columns and labels:
[1] = target: T1, HLA-A*02:01 on BLCL HEN cells (Homo sapiens, HLA-A*02:01, strain); experiment: flow cytometry on cells; 150,000 BLCL cells with various concentrations of purified mAbs in PBS 0.5% BSA, 30 min at room temperature; PE goat anti-human IgG; conditions: one partner purified
T1 construct: HLA-A*02:01 naturally expressed on BLCL HEN; beta-2-microglobulin of the cells; also called BLCL HEN expressing HLA-A2; source: endogenous, on BLCL HEN cells (HLA-A*02:01/ HLA-A*0101); copies: + +

[2] = target: T2, HLA-A2 on stably transfected B721.221 cells (Homo sapiens, HLA-A*02:01, strain); experiment: as above; conditions: one partner purified
T2 construct: beta-2-microglobulin of the cells; also called 721.221(A2); B721.221 A2; source: B721.221 cells, stably transfected, on the cell surface; copies: + +

[3] = target: T3, HLA-A*02:01 on a single antigen bead (Homo sapiens, HLA-A*02:01, strain); experiment: single antigen flow bead assay (Luminex); LabScreen single-antigen LS1A04 beads with 97 MHC class I alleles, Luminex 100 analyser; positivity threshold MFI 1000; conditions: both partners purified
T3 construct: beta-2-microglobulin; source: bought: One Lambda (LabScreen single-antigen LS1A04); copies: + +

Measured: binding result

B1: C4.4 (antibody, V domains shown)
VH: EVQLVESGAEVKKPGESLKISCKASGYRFTNYWIGWVRQMPGKGLEWMGIIYPYHSDTQYTPSFQGQVTISADESTTTAYLHLSSLKASDTAIYYCVRLRGDFVPVVFAPYFDSWGQGTLVT
VL: QSALTQPRSVSGSPGQSVTISCTGSRSDAHTFNYVSWYQQHPGKAPKLMICDVNQRPSGVPDRFSGSKSGDAASLTISGLQAEDEADYYCFSYDANYTLGVFGTGTKVTVL
notes: numbers count on: the heavy chain from the first amino acid of its leader peptide; human heavy chain constant domains of the IgG-AbVec expression vector; human lambda light chain constant domain of the Iglambda-AbVec expression vector; Only the heavy chain was mutated; also called cluster D74H//S80 T//W102 L//M112I//G121D//R124P
binds: all assays above

B2: C4.18 (antibody, V domains shown)
VH: B1 VH with T61S
VL: B1 VL
notes: numbers count on: the heavy chain from the first amino acid of its leader peptide; human heavy chain constant domains of the IgG-AbVec expression vector; human lambda light chain constant domain of the Iglambda-AbVec expression vector; Only the heavy chain was mutated; also called cluster D74H//W102 L//M112I//G121D//R124P
binds: all assays above

Reference: PMC6378725 (BMC Biotechnology, 2019)
